Measured values as given in US20030166021A1 (WISTAR INSTITUTE OF ANATOMY AND BIOLOGY, published 2003).
Ends that are not written are not given here.

T1: protein kinase C (PKC) peptide FTRHPPVLTPPDQEVI test bait (rat, also: fused to LexA DNA binding domain (order, linker not given here))
T1 construct: Negative control bait in the two hybrid mating test; also called peptide derived from rat protein kinase Cβ2
T1 chain: FTRHPPVLTPPDQEVI

T2: cell cycle protein p107 (UniProt P28749 1-1068, limits assumed)
T2 sequence (looked up): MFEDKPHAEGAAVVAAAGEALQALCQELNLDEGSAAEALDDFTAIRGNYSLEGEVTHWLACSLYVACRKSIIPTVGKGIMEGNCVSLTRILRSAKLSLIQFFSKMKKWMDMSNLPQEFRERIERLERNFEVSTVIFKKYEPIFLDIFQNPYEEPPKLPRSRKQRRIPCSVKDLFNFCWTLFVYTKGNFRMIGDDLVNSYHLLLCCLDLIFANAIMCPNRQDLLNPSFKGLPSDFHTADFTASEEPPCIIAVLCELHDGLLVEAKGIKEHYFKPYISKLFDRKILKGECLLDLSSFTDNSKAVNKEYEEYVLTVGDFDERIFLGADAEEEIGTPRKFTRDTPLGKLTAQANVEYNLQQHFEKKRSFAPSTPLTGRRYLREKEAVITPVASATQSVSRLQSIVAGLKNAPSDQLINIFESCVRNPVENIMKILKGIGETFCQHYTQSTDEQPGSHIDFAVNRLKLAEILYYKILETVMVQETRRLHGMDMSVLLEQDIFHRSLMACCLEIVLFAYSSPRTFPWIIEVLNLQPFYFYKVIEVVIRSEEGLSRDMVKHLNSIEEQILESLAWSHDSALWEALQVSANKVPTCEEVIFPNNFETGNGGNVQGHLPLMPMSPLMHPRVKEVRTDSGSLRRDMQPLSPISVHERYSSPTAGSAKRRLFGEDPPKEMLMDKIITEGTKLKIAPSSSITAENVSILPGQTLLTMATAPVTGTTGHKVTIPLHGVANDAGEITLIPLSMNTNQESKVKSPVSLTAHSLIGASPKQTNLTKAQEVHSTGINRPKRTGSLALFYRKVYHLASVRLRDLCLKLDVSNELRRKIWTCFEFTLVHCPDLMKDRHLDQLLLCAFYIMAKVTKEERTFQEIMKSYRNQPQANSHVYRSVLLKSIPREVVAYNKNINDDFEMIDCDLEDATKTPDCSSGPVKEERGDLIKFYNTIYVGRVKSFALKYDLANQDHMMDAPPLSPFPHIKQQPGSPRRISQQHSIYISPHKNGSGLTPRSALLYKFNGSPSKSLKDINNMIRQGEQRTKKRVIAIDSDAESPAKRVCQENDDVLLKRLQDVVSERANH

B1: murine Bin1 135 amino acid polypeptide (clone #99 ORF) as VP16 fusion from the two hybrid cDNA library (other)
chain: EIRVNHEPEPASGASPGAAIPKSPSQPAEASEVVGGAQEPGETAASEATSSSLPAVVVETFSATVNGAVEGSAGTGRLDLPPGFMFKVQAQHDYTATDTDELQLKAGDVVLVIPFQNPEEQDEGWLMGVKESD
notes: Prey of the yeast two hybrid screen
B2: GST-ATG99 polypeptide (glutathione-S-transferase fusion of the 135 aa murine Bin1 polypeptide) (other)
chain: B1 chain
notes: Expressed in E. coli, purified on glutathione-Sepharose; not shown: glutathione-S-transferase of vector pGEX-2T (Pharmacia); 15 amino acid N-terminal extension with initiator methionine (3 amino acids from E47 and 12 amino acids from VP16); lett

Columns and labels:
[1] = target: T3, LexA-MB1 fusion protein (human c-Myc Myc box 1 peptide, amino acids 47-62) (human); test: yeast two hybrid, mating test with LexA baits
T3 construct: also called MB1 bait; lexA-MB1 peptide construct

[2] = target: T4, small GTP-binding protein RhoB test bait (UniProt P62745 1-196, limits assumed); test: yeast two hybrid mating test with negative control baits
T4 construct: Negative control bait in the two hybrid mating test
T4 sequence (P62745 whole entry): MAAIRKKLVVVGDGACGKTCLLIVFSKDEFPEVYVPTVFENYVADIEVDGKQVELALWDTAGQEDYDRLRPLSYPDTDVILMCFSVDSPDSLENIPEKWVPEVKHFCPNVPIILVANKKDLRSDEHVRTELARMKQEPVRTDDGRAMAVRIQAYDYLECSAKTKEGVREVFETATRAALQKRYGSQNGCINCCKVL

[3] = target: T1, protein kinase C (PKC) peptide …; test: as above
[4] = target: T2, cell cycle protein p107; test: GST pull-down
[5] = target: small GTP-binding protein RhoB (tested for GST-ATG99 interaction) (UniProt P62745 1-196, limits assumed); test: GST pull-down
Chain of small GTP-binding protein RhoB (tested for GST-ATG99 interaction) (P62745 whole entry): as above

[6] = target: extracellular protein PAI-1 (UniProt P05121 24-402, limits assumed); test: GST pull-down
Chain of extracellular protein PAI-1 (P05121 24-402 limits assumed): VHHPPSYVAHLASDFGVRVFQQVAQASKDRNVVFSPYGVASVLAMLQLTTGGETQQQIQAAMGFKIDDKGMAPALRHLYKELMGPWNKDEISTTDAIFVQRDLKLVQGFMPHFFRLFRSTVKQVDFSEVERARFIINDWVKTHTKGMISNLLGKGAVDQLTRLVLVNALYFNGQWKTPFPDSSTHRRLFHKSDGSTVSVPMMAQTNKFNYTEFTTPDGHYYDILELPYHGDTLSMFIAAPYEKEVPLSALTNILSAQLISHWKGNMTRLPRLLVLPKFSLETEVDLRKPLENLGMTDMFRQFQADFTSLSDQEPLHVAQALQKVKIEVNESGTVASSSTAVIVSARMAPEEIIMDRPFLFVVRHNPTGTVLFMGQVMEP

[7] = target: transcription factor YY 1 (UniProt P25490 1-414, limits assumed); test: GST pull-down
Chain of transcription factor YY 1 (P25490 whole entry): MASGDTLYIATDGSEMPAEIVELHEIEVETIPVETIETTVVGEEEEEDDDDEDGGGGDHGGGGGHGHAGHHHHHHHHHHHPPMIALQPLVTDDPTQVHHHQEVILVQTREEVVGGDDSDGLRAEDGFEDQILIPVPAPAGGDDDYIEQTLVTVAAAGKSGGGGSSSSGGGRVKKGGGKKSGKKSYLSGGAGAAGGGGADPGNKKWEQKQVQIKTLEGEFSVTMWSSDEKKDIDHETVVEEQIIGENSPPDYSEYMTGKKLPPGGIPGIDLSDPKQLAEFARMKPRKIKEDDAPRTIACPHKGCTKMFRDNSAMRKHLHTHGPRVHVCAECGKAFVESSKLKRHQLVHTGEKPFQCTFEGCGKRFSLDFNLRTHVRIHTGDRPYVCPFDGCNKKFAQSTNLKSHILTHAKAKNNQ

[8] = target: Max (UniProt P61244 1-160, limits assumed); test: GST pull-down
Chain of Max (P61244 whole entry): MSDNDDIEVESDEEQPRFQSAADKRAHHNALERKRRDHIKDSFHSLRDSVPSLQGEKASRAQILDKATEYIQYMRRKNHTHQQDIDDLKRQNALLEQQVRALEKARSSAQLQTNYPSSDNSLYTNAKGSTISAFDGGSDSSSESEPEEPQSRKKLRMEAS

[9] = target: T5, USF (vector CMV-USF) (UniProt P22415 1-310, limits assumed); test: GST pull-down of 35S-labelled IVT protein
T5 construct: 35S-labelled in vitro translated protein
T5 sequence (P22415 whole entry): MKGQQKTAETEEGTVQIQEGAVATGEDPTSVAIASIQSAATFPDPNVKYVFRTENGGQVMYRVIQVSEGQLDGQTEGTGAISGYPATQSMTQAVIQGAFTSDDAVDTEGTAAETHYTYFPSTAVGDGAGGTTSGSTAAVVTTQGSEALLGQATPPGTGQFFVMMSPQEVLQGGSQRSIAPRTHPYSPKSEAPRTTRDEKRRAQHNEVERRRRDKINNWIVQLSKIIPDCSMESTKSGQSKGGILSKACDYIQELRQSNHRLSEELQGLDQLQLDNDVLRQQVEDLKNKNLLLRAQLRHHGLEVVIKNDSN

[10] = target: T6, SV40 large T antigen (vector pTag) (SV40, UniProt P03070 1-708); test: GST pull-down of 35S-labelled IVT protein
T6 construct: 35S-labelled in vitro translated protein

[11] = target: T7, c-Myc with both MB1 (49-101) and MB2 (120-140) deletions (human, UniProt P01106 1-48; P01106 102-119; P01106 141-439); test: GST pull-down of 35S-labelled IVT protein
T7 construct: range 1-48; also called CMV Hm subclone containing both deletions
T7 sequence (P01106 other isoform, or with tags, fused parts or gaps limits assumed): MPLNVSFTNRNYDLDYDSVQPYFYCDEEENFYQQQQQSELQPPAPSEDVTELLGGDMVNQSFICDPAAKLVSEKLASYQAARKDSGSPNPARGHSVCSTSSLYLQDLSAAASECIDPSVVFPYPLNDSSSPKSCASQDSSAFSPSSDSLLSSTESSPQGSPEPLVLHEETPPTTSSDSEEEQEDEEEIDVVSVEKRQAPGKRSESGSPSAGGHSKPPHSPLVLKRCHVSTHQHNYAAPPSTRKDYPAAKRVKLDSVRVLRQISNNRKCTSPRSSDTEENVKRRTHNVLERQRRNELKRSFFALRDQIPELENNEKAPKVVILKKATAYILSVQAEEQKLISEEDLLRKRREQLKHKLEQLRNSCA

Binder	binding result [1]	binding result [2]	binding result [3]	binding result [4]	binding result [5]	binding result [6]	binding result [7]	binding result [8]	binding result [9]	binding result [10]	binding result [11]
B1	binds	no binding	no binding	–	–	–	–	–	–	–	–
B2	–	–	–	no binding	no binding	no binding	no binding	no binding	no binding	no binding	no binding
